Data as given in patent publication US20070077603A1 (published 2007).
Blank lines part the entries; values can stand above or below the molecule they belong to.

T1: C4b-binding protein (human, UniProt P04003 49-597; P20851 18-252)
T1 construct: Endogenous plasma protein; also called C4BP
T1 sequence (looked up) 1: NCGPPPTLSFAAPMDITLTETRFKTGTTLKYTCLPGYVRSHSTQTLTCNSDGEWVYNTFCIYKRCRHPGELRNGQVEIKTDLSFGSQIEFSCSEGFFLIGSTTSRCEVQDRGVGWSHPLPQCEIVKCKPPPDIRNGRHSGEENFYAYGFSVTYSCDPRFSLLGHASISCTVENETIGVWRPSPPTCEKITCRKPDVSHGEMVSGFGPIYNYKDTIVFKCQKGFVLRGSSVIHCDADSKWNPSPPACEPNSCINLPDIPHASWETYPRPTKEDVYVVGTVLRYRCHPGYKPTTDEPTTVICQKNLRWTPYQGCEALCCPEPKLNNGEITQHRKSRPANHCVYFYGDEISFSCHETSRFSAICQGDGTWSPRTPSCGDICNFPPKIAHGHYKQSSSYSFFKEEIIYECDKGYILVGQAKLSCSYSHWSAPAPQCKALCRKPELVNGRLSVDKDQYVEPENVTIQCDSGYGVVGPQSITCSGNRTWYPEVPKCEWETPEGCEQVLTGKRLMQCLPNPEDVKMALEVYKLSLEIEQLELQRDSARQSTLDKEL
T1 sequence (looked up) 2: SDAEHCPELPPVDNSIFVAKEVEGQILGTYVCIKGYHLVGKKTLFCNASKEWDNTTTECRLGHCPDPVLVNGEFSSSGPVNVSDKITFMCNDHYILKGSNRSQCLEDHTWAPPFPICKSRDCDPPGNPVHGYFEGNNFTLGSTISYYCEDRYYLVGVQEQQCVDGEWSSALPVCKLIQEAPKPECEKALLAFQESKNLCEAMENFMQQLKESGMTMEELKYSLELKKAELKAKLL

T2: recombinant human Gas6 (human, UniProt Q14393 49-678, limits assumed)
T2 construct: Control vitamin K-dependent protein on the ligand blot (200 ng)
T2 sequence (looked up): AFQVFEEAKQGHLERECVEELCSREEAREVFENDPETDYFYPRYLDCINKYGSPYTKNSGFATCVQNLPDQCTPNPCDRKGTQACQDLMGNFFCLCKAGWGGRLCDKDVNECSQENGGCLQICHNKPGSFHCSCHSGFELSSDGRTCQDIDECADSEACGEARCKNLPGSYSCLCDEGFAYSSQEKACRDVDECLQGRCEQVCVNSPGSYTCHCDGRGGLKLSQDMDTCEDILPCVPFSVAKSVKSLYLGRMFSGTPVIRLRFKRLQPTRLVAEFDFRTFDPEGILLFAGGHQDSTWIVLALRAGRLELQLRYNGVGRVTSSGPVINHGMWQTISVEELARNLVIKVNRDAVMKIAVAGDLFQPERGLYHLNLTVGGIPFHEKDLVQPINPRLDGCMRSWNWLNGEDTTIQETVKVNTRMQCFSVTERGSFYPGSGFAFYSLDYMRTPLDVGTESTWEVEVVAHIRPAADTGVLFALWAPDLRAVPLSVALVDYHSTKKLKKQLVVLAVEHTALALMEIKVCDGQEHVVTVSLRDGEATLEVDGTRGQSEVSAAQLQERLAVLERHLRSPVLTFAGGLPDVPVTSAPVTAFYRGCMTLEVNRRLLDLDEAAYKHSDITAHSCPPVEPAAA

T3: multimeric protein S in plasma (human, UniProt P07225 42-676)
T3 construct: mature; also called protein S multimers in plasma; putative protein S multimers
T3 sequence (looked up): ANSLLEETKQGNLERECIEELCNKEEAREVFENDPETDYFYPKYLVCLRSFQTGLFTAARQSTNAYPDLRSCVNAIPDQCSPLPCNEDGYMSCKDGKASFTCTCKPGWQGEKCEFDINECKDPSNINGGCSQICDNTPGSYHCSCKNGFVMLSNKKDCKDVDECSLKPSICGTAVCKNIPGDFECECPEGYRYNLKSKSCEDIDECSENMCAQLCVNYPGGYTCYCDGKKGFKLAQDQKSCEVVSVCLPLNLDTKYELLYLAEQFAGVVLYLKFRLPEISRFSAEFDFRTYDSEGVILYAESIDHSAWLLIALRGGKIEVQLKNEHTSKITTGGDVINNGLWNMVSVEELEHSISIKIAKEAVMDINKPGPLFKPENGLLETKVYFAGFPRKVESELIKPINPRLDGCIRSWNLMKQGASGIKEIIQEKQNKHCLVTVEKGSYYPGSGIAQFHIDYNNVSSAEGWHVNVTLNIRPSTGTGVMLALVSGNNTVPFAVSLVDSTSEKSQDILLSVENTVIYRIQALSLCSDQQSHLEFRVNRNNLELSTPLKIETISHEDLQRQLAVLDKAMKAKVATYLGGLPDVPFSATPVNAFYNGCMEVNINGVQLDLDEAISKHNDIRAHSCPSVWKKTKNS

T4: Protein S-C4b-binding protein complex in fractionated hirudin-plasma (human, UniProt P07225 42-676; P04003 49-597; P20851 18-252)
T4 construct: Native complex from plasma; also called PS-C4BP; Cx
T4 sequence (looked up) 1: T3 sequence (looked up)
T4 sequence (looked up) 2: T1 sequence (looked up) 1
T4 sequence (looked up) 3: T1 sequence (looked up) 2

B1: protein S monomers (purified) (other, UniProt P07225 42-676, looked up)
chain: T3 sequence (looked up)
B2: protein S dimers (purified) (other, UniProt P07225 42-676, looked up)
chain: T3 sequence (looked up)
B3: monomeric protein S in plasma (other, human, UniProt P07225 42-676, looked up)
chain: T3 sequence (looked up)
notes: mature; also called monomers
B4: Biotin-DIP-FXa (enzyme)
chain 1: ANSFLEEMKKGHLERECMEETCSYEEAREVFEDSDKTNEFWNKYKDGDQCETSPCQNQGKCKDGLGEYTCTCLEGFEGKNCELFTRKLCSLDNGDCDQFCHEEQNSVVCSCARGYTLADNGKACIPTGPYPCGKQTLER
chain 2: IVGGQECKDGECPWQALLINEENEGFCGGTILSEFYILTAAHCLYQAKRFKVRVGDRNTEQEEGGEAVHEVEVVIKHNRFTKETYDFDIAVLRLKTPITFRMNVAPACLPERDWAESTLMTQKTGIVSGFGRTHEKGRQSTRLKMLEVPYVDRNSCKLSSSFIITQNMFCAGYDTKQEDACQGDSGGPHVTRFKDTYFVTGIVSWGEGCARKGKYGIYTKVTAFLKWIDRSMKTRGLPKAKSHAPEVITSSPLK
modifications: treated with diisoproylfluorophosphate until >95% of its amidolytic activity was lost and then biotinylated; biotinylated (sites not given)
notes: Used at 3 µg/ml as probe in ligand blots; also called FXa treated with diisopropylfluorophosphate and biotinylated
B5: Biotin-FX (other)
chain 1: B4 chain 1
chain 2: SVAQATSSSGEAPDSITWKPYDAADLDPTENPFDLLDFNQTQPERGDNNLTRIVGGQECKDGECPWQALLINEENEGFCGGTILSEFYILTAAHCLYQAKRFKVRVGDRNTEQEEGGEAVHEVEVVIKHNRFTKETYDFDIAVLRLKTPITFRMNVAPACLPERDWAESTLMTQKTGIVSGFGRTHEKGRQSTRLKMLEVPYVDRNSCKLSSSFIITQNMFCAGYDTKQEDACQGDSGGPHVTRFKDTYFVTGIVSWGEGCARKGKYGIYTKVTAFLKWIDRSMKTRGLPKAKSHAPEVITSSPLK
modifications: biotinylated (sites not given)

How the values were obtained:
[1] = molecular target: FXa/FVa (prothrombinase components) (UniProt P00742); assay: cell-based or functional assay
[2] = molecular target: FXa/FVa (prothrombinase components) (UniProt P00742 41-179; P00742 235-488; P12259 29-737; P12259 1574-2224); assay: cell-based or functional assay
C4b-binding protein = molecular target: T1, C4b-binding protein; assay: complex in hirudin-plasma, Superose-6 gel filtration and immunoblot from native PAGE
Method: (§1) Gel filtration - - - Purified protein S preparations or hirudin-plasma (200 μl ) were fractionated on a 1×30 cm Superose-6 HR column using Fast Performance Liquid Chromatography (Amersham-Pharmacia, Piscattaway, N.J.) at a flow rate of 0.4 ml/min in Hepes-buffered saline (HBS). Hirudin and citrated plasmas (300 ul) were each mixed with 700 μl of 50 mM benzamidine and fractionated on a 1.6×60 cm Sephacryl-300 column at a flow rate of 0.4 ml/min in Tris-buffered saline. Fractions were analyzed for protein S antigen by ELISA, for protein S multimers by native PAGE, and for PS-direct. ELISAs were also performed on the fractions for FV, FX, and C4BP antigens
Fractionation of plasma - - - When hirudin-plasma was gel-filtered on Superose-6 (FIG. 8A), forms that could be identified by immunoblotting from native PAGE were PS-C4BP complexes (fractions 31-39), followed by putative protein S multimers of three types (arrows), and monomeric protein S (fractions 47-54). A smeared band near the void volume marked with ? […] The original quantity of multimers may have been greater than seen in FIG. 8A, since there was evidence of dissociation to monomer in most fractions. […]

human protein C = molecular target: T5, human protein C (human, UniProt P04070 43-197; P04070 200-461); assay: ligand blot from native 10% PAGE, biotin-DIP-FXa, streptavidin-HRP
T5 construct: Control vitamin K-dependent protein on the ligand blot (200 ng)
Method: (§2) For ligand blotting, FXa was treated with diisoproylfluorophosphate until >95% of its amidolytic activity was lost and then biotinylated as described (Heeb, et al. (1994) Proc. Natl. Acad. Sci. USA 91, 2728-2732). Blots containing 200 ng of protein S or control proteins were incubated with 3 μg/ml of this DIP-FXa for 1 h, followed by streptavidin-horse radish peroxidase (Pierce), chemiluminescent substrate and film exposure.
(§3) Ligand blotting of DIP-FXa to protein S monomers and dimers - - - Biotin-DIP-FXa could ligand blot to both protein S monomers and dimers, but not to two other vitamin K-dependent proteins (FIG. 3). DIP-FXa ligand blotted to monomers and multimers of protein S on native 10% PAGE, but not to human protein C or recombinant human Gas6. […] Note that protein S no. 1 has few monomers compared to protein S no. 2,and protein S no. 2 is <50% monomeric. (see FIG. 4).

recombinant human Gas6 = molecular target: T2, recombinant human Gas6; assay: as above
Method: as §2, §3

[3] = molecular target: T3, multimeric protein S in plasma; assay: ligand blot from native 4-15% PAGE of Sephacryl-300 fractions of hirudin-plasma
Method: as §1
(§4) To further separate protein S forms in plasma, hirudin-plasma and citrated plasma were each subjected to gel filtration on a larger column (FIGS. 8B and 8C). […] Biotin-FXa could ligand blot (Heeb, et al. Protein S binds to and inhibits factor Xa. Proc Natl Acad Sci USA. 1994;91:2728-2732) to PS-C4BP, multimeric and monomeric protein S in fractionated hirudin plasma (FIG. 8C).

[4] = molecular target: B3; assay: as above
Method: as §1, §4

[5] = molecular target: T4, Protein S-C4b-binding protein complex …; assay: as above
Method: as §1, §4

Chain of FXa/FVa (prothrombinase components) (UniProt P00742) (P12259 29-737 limits assumed, chain 3 of 2): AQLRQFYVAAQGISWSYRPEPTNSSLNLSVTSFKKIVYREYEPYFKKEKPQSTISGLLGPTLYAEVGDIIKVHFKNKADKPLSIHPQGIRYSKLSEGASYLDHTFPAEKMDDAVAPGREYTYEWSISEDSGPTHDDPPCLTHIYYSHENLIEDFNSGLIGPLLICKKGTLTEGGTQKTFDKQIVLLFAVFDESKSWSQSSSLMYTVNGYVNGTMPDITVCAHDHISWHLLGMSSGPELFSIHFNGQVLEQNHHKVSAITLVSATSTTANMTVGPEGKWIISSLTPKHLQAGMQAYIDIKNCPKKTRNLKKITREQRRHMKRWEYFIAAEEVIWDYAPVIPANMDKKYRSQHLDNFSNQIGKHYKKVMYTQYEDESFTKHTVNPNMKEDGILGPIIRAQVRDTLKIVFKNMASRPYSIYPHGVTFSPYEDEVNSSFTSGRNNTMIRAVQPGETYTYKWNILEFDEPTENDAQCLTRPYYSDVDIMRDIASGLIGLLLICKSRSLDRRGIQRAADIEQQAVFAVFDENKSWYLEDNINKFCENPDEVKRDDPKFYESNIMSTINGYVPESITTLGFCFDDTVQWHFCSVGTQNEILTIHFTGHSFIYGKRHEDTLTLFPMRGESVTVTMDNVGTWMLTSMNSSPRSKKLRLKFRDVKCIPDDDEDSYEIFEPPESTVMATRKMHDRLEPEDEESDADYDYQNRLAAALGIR
Chain of FXa/FVa (prothrombinase components) (UniProt P00742) (P12259 1574-2224 limits assumed, chain 4 of 2): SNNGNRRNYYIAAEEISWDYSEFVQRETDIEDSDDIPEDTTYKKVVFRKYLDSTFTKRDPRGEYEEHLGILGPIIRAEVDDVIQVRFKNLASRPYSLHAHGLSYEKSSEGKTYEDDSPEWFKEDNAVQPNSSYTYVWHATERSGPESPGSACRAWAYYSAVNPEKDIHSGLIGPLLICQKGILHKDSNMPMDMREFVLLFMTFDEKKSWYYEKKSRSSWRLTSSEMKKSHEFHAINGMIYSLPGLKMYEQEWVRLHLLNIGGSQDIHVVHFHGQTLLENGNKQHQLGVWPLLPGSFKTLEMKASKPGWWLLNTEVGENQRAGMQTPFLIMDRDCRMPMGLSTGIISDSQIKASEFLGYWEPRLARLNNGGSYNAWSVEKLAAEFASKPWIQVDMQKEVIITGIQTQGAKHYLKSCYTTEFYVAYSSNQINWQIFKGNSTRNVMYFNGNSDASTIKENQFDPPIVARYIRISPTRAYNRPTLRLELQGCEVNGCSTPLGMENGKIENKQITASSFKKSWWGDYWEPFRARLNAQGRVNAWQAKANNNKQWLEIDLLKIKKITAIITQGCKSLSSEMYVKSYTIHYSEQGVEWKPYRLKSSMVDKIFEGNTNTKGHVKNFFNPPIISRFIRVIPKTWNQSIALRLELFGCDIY
Chain of FXa/FVa (prothrombinase components) (UniProt P00742 41-179; P00742 235-488; P12259 29-737; P12259 1574-2224) (P12259 29-737 limits assumed, chain 3 of 2): as the sequence (P12259 29-737 limits assumed, chain 3 of 2) above
Chain of FXa/FVa (prothrombinase components) (UniProt P00742 41-179; P00742 235-488; P12259 29-737; P12259 1574-2224) (P12259 1574-2224 limits assumed, chain 4 of 2): as the sequence (P12259 1574-2224 limits assumed, chain 4 of 2) above
T5 sequence (P04070 43-197, chain 1 of 2): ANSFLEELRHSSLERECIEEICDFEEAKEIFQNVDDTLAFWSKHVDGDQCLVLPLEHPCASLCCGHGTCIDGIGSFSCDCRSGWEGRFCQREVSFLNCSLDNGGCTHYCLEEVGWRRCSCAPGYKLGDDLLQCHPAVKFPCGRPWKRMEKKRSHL
T5 sequence (P04070 200-461, chain 2 of 2): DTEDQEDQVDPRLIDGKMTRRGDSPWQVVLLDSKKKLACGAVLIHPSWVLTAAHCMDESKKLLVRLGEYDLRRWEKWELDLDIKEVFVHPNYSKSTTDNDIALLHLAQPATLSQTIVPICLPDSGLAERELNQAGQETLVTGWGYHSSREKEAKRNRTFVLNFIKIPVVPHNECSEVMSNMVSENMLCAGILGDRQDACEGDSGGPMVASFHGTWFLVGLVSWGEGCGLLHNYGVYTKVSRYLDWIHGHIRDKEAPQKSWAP

- Inhibition of prothrombinase, IC50 @ 25 µM PL, nM (total moles of protein S monomeric subunits) [1]: 111 nM
- Inhibition of prothrombinase, IC50 @ 25 µM PL, nM of specific form [1]: 28 nM
Molecule: protein S forms >Trimer (from UniProt P07225 42-676)

- Inhibition of prothrombinase, IC50 @ 25 µM PL, nM (total moles of protein S monomeric subunits) [1]: 113 nM
- Inhibition of prothrombinase, IC50 @ 25 µM PL, nM of specific form [1]: 38 nM
Molecule: protein S Trimer (from UniProt P07225 42-676)

- Inhibition of prothrombinase, IC50 @ 25 µM PL, nM (total moles of protein S monomeric subunits) [1]: 116 nM
- Inhibition of prothrombinase, IC50 @ 25 µM PL, nM of specific form [1]: 46 nM
Molecule: protein S Dimer-Trimer fraction (from UniProt P07225 42-676)

Molecule: B1
- Inhibition of prothrombinase, IC50 @ 25 µM PL, nM (total moles of protein S monomeric subunits) [2]: 119 nM
- Inhibition of prothrombinase, IC50 @ 25 µM PL, nM of specific form [2]: 119 nM of specific form

Molecule: B2
- Inhibition of prothrombinase, IC50 @ 25 µM PL, nM (total moles of protein S monomeric subunits) [2]: 109 nM
- Inhibition of prothrombinase, IC50 @ 25 µM PL, nM of specific form [2]: 54 nM of specific form

Molecule: B3
- binding result (C4b-binding protein): binds

Molecule: B4
- binding result (human protein C): no binding
- binding result (recombinant human Gas6): no binding

Molecule: B5
- binding result [3]: no binding
- binding result [4]: no binding
- binding result [5]: no binding
